Assay results reported in article PMC4948679.
“And” between values parts separate entries of the source, which are not always exact repeats. Identical values can stand only once.

Molecular target: Ab2/3H6, murine/wild-type anti-idiotypic antibody (wt3H6) (mouse (developed from mouse hybridoma))
Assay: BLI

B1: broadly neutralizing anti-HIV-1 antibody 2F5 (antibody, V domains shown)
VH: RITLKESGPPLVKPTQTLTLTCSFSGFSLSDFGVGVGWIRQPPGKALEWLAIIYSDDDKRYSPSLNTRLTITKDTSKNQVVLVMTRVSPVDTATYFCAHRRGPTTLFGVPIARGPVNAMDVWGQGITVTISS
VL: ALQLTQSPSSLSASVGDRITITCRASQGVTSALAWYRQKPGSPPQLLIYDASSLESGVPSRFSGSGSGTEFTLTISTLRPEDFATYYCQQLHFYPHTFGGGTRVDVR
  response level: 3.5 nm and 3.4 nm
